{"source": "patent US7815907B2", "about": "“Antibodies to insulin-like growth factor I receptor” (Amgen Fremont Inc., priority 2001, dated 2010)", "key": {"[1]": {"biological_target": "T1, IGF-IR (Homo sapiens, UniProt P08069)", "test": "IGF-IR and IGF-IR phosphotyrosine levels in 3T3-IGF-IR tumors in vivo (ELISA)", "design": "expressed in transfected cells; host or cells: NIH-3T3 (mouse fibroblasts); species or system athymic (nu/nu) mice", "text": "We determined whether the effects of the antibodies of the invention on IGF-IR as described in the previous examples would occur in vivo. We induced tumors in athymic mice according to published methods (V. A. Pollack et al., “Inhibition of epidermal growth factor receptor-associated tyrosine phosphorylation in human carcinomas with CP-358,774: Dynamics of receptor inhibition in situ and antitumor effects in athymic mice,” J. Pharmacol. Exp. Ther. 291:739-748 (1999). Briefly, we injected IGF-IR-transfected NIH-3T3 cells (5×10^6) subcutaneously into 3-4 week-old athymic (nu/nu) mice with 0.2 ml of Matrigel preparation. We then injected mice with an antibody of the invention intraperitoneally after established (i.e. approximately 400 mm^3) tumors formed.\nAfter 24 hours, we extracted the tumors, homogenized them and determined the level of IGF-IR. To determine IGF-IR levels, we diluted the SC-713 antibody in Blocking buffer to a final concentration of […] and added 100 μl to each well of a Reacti-Bind Goat anti-rabbit (GAR) coated plate (Pierce). We incubated the plates at room temperature for 1 hour with shaking and then washed the plates five times with wash buffer. We then weighed tumor samples that had been prepared as described above and homogenized them in lysis buffer (1 ml/100 mg). We diluted 12.5 μl of tumor extract with lysis buffer to a final volume of 100 μl and added this to each well of a 96-well plate. We incubated the plates at room temperature with shaking for 1-2 hours and then washed the plates five times with Wash buffer. We then added 100 μl HRP-PY54 or biotinylated anti-IGF-IR antibody in Blocking buffer to each well and incubated at room temperature with shaking for 30 minutes. We then washed the plates five times with wash buffer and developed the plates. […] We then quantitated the signal by shaking for 10 seconds and measuring OD450nm. […]\nTumors were induced in nude mice as described in Example VIII. […] Tumors were extracted and IGF-IR levels were measured by ELISA as described in Example VIII."}, "[2]": {"biological_target": "T2, extracellular domain of IGF-IR (Homo sapiens, UniProt P08069)", "T2 construct": "Different concentrations of the extracellular domain of IGF-IR were injected on the sensorchip", "test": "BIAcore affinity measurement, Protocol 2", "type": "binding", "conditions": "BIAcore 3000; as Fagerstam et al.", "method": "We performed affinity measures of purified antibodies by surface plasmon resonance using the BIAcore 3000 instrument, following the manufacturer's protocols.\nBIAcore measurements were performed essentially as described by Fagerstam et al. “Detection of antigen-antibody interactions by surface plasmon resonance. Applications to epitope mapping.” J. Mol. Recog. 3: 208-214. (1990)."}, "[3]": {"tested_on": "rabbit IGF-IR", "test": "Species crossreactivity by immunoprecipitation/Western blot", "type": "binding", "conditions": "immunoprecipitation, antibody 1 μg/ml", "method": "(§1) To perform immunoprecipitation experiments, we plated cells in DMEM high glucose media supplemented with L-glutamine (0.29 mg/ml), 10% heat-inactivated FBS, and 500 μg/ml each of geneticin, penicillin and streptomycin to 50% confluence in T25 flasks. We then added 100 μl of an antibody of the invention in Hank's buffered saline solution (HBSS; Gibco BRL) at a concentration of 1 μg/ml. We incubated the plates for 30 minutes at 37° C. in an incubator and then stimulated the cells with IGF-I at 100 ng/ml for 10 minutes at room temperature. We lysed the cells in RIPA buffer (Harlow and Lane, supra) and immunoprecipitated IGF-IR with 2 μg of pan-specific SC-713 anti-IGF-IR antibody (Santa Cruz) plus protein A agarose beads for 1 hour at 4° C. We pelleted the beads and wash three times with PBS/T (PBS+0.1% Tween-20) and then boiled the beads in 40 μl Laemmli buffer containing 5% βME.\n(§2) The samples prepared as described above were then analyzed by Western blot. We loaded 12 μl of each sample per lane on 4-10% gradient Novex™ gels run with 1×MES buffer (Novex™). Gels were run at 150V for 1 hour or at 200V for approximately 30 minutes. We then transferred the gel to a membrane in Novex™ transfer buffer with 10% methanol either overnight at 100 mA or for 1-1.5 hours at 250 mA. We then allowed the membrane to dry completely and blocked at room temperature with TBS (Tris-buffered saline pH 8.0) containing Superblock (Pierce Chemical Co.). We added the IGF-IR blotting antibody SC713 (Santa Cruz) to detect immunoprecipitated IGF-IR."}, "[4]": {"tested_on": "IGF-IR from the marmoset", "test": "Species crossreactivity by immunoprecipitation/Western blot", "type": "binding", "conditions": "immunoprecipitation, antibody 1 μg/ml", "method": "as §1, §2"}, "[5]": {"tested_on": "canine IGF-IR", "test": "Species crossreactivity by immunoprecipitation/Western blot", "type": "binding", "conditions": "immunoprecipitation, antibody 1 μg/ml", "method": "as §1, §2"}, "[6]": {"tested_on": "Rhesus IGF-IR", "test": "Species crossreactivity by immunoprecipitation/Western blot", "type": "binding", "conditions": "immunoprecipitation, antibody 1 μg/ml", "method": "as §1, §2"}, "[7]": {"tested_on": "guinea pig IGF-IR", "test": "Species crossreactivity by immunoprecipitation/Western blot", "type": "binding", "conditions": "immunoprecipitation, antibody 1 μg/ml", "method": "as §1, §2"}, "[8]": {"biological_target": "T1, IGF-IR", "test": "Species crossreactivity by immunoprecipitation/Western blot", "type": "binding", "design": "on cells from a variety of animals; endogenous in cells", "conditions": "immunoprecipitation, antibody 1 μg/ml", "method": "as §1\nThe samples prepared as described above were then analyzed by Western blot. We loaded 12 μl of each sample per lane on 4-10% gradient Novex™ gels run with 1×MES buffer (Novex™). Gels were run at 150V for 1 hour or at 200V for approximately 30 minutes. We then transferred the gel to a membrane in Novex™ transfer buffer with 10% methanol either overnight at 100 mA or for 1-1.5 hours at 250 mA. […]"}, "[9]": {"conditions": "intraperitoneal injection, tumors extracted after 24 hours"}}, "data": [{"substance": "2.13.2: human IgG2κ monoclonal antibody specific for IGF-IR from hybridoma 2.13.2 (ATCC PTA-2788)", "values": [{"measurement": "IGF-IR receptor levels in tumors over time", "setting": "[1]; 125 μg by intraperitoneal injection", "result": "down-regulated"}, {"measurement": "IGF-IR phosphotyrosine (phosphorylated IGF-IR) in tumors", "setting": "[1]; [9]", "result": "decrease"}, {"measurement": "total IGF-IR protein in tumors", "setting": "[1]; [9]", "result": "decrease"}, {"measurement": "Kd", "setting": "[2]", "result": 1.53, "unit": "nM"}, {"measurement": "binding to rabbit IGF-IR", "setting": "[3]", "result": "not"}, {"measurement": "binding to marmoset IGF-IR", "setting": "[4]", "result": "not"}, {"measurement": "binding to canine IGF-IR", "setting": "[5]", "result": "not"}, {"measurement": "binding to Rhesus IGF-IR", "setting": "[6]", "result": "able to bind"}, {"measurement": "binding to guinea pig IGF-IR", "setting": "[7]", "result": "not"}, {"measurement": "binding to human IGF-IR", "setting": "[8]", "result": "able to bind"}]}]}
